The values that follow come from patent US20220041738A1 (SAITAMA MEDICAL UNIVERSITY, published 2022).

For test [1], the target named is T1, human ALK2-R206H on cells (human, UniProt Q04771 21-509).
T1 sequence: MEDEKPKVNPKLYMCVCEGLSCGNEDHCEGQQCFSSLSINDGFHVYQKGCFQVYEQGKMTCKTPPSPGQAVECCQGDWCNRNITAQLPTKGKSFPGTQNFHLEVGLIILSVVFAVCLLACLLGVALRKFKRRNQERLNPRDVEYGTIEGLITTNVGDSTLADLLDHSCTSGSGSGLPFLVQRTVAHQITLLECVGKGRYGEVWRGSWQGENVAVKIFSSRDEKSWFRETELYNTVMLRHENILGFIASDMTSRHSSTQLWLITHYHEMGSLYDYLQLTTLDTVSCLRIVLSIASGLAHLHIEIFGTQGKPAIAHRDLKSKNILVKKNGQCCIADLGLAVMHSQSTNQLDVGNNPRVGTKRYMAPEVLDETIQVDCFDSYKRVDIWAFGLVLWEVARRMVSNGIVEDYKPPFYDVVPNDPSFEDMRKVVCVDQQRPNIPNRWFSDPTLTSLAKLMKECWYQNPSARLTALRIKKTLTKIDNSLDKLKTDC
The test is described as follows: immunofluorescence on transfected, formalin-fixed C2C12 cells, IgG at 10 µg/mL, Alexa 594 anti-rat IgG. Put shortly:
(§1)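 C2C12 mouse myoblasts transfected overnight with human ALK2 cDNA (wild-type or FOP variants incl. G325A, pcDEF3 vector). Cells formalin-fixed, goat-serum blocked, stained 1 h RT with purified IgG at 10 µg/mL, then Alexa 594 anti-rat IgG 1 h; DAPI nuclei, fluorescence microscopy read-out.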

Test [2] concerns the target T2, human ALK2-G325A on cells (human, UniProt Q04771 21-509).
T2 sequence: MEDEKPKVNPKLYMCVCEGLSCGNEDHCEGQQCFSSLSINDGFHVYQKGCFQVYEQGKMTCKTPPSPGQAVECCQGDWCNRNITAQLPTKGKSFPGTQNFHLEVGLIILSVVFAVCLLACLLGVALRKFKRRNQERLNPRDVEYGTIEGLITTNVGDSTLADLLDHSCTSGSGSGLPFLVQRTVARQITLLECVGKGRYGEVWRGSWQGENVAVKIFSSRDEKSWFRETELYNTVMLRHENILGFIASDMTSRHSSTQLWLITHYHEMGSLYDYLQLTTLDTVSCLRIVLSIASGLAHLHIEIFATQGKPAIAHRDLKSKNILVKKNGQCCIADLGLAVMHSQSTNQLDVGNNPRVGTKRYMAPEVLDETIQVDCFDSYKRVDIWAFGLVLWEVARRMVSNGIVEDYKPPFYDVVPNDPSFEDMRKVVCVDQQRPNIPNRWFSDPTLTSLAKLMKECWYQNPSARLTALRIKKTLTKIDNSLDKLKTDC
The test is described as above. In outline: as §1

The target in test [3] is T3, human ALK2-G328E on cells (human, UniProt Q04771 21-509).
T3 sequence: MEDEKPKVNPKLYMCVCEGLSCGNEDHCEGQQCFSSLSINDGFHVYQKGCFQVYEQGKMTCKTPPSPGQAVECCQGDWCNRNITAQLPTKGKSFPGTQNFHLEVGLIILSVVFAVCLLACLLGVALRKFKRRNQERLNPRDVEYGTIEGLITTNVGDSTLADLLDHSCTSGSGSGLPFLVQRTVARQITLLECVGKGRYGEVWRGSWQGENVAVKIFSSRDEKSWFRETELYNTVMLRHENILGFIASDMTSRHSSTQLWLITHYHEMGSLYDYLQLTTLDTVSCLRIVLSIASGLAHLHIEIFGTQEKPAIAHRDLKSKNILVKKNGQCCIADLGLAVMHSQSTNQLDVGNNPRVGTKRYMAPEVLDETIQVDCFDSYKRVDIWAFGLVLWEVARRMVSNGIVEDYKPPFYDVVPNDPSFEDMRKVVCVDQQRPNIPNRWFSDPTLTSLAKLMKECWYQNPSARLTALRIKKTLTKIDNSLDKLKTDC
The test is described as above. Put shortly:
as §1

The target in test [4] is T1, human ALK2-R206H on cells. Nature of the test: immunofluorescence (legend of FIG. 4). The protocol: (§2) Mouse C2C12 cells were seeded into a 96-well plate (Greiner Bio-One) at 0.5×10³ cells/well, and cultured in 15% FBS-containing DMEM medium overnight under the conditions of 5% CO₂ at 37° C. On the following day, the C2C12 cells were transfected with each of a wild-type human ALK2 cDNA integrated into pcDEF3; pcDEF3/human ALK2-L196P, pcDEF3/human ALK2-P197_F198delinsL, pcDEF3/human ALK2-R202I, pcDEF3/human ALK2-R206H, pcDEF3/human ALK2-Q207E, pcDEF3/human ALK2-R258S, pcDEF3/human ALK2-G325A, pcDEF3/human ALK2-G328E, pcDEF3/human ALK2-G328R, pcDEF3/human ALK2-G328W, pcDEF3/human ALK2-G356D, and pcDEF3/human ALK2-R375P, which are variants identified in FOP; and pcDEF3 as a control, using Lipofectamine 2000 (Invitrogen), and further cultured overnight.
(§3) The C2C12 cells were fixed with 10% neutral formalin (Nacalai Tesque, Japan) for 20 minutes at room temperature, and then blocked with 10% goat normal serum for 30 minutes. After the blocking agent was removed, purified IgG diluted to 10 μg/mL with the blocking agent was added, and the cells were left for 1 hour at room temperature. After the cells were washed with PBS three times, Goat Alexa 594-conjugated anti-rat IgG (Invitrogen) diluted to 1:1000 with the blocking agent was added, and the cells were left for 1 hour at room temperature. After the cells were washed with PBS three times, the cells were fixed with 10% neutral formalin for 15 minutes at room temperature, and nuclear-stained with DAPI (LifeTechnologies). Fluorescent signals were analyzed with a fluorescence microscope BZ-9000 (Keyence).

The target of test [5] is T4, human ALK2-G356D on cells (human, UniProt Q04771 21-509).
T4 sequence: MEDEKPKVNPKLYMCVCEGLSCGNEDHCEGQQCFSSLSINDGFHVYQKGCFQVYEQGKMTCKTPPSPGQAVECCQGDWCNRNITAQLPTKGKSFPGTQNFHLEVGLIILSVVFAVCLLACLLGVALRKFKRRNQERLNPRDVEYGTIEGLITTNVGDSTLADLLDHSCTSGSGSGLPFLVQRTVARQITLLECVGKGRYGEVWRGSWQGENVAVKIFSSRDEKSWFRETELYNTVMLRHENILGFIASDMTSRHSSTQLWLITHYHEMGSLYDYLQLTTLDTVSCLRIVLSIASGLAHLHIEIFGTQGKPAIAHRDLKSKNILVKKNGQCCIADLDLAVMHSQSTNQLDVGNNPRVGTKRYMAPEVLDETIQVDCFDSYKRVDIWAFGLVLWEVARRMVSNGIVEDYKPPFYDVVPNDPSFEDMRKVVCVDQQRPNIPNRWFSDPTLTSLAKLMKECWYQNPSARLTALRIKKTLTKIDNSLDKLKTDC
The test is described as follows: immunofluorescence (legend of FIG. 4). The protocol: as §2, §3

B1: rat anti-ALK2 monoclonal antibody A2-25C (antibody, V domains shown)
VH: EVQLVESGGGLVQPGGSLKLSCAASGFTFSYYAMSWVCQAPTKGLEWVASISRGGDNTYYRDTVKGRFTTSRDNAKNTLYLQMDSLRSEDTATYYCARLNYNNYFDYWGQGVMVTVSS
VL: DIQMTQSPASLSASLEEIVTITCQASQDIGNWLSWYQQKPGKSPQLLIYGATSLADGVPSRFSGSRSGTQYSLKISRLRVEDIGIYYCLQAYSAPFTFGSGTKLEIKR
notes: Rat monoclonal IgG from a hybridoma; also called 25C11
B1: the binding result in test [1], in test [2] and in test [3] was “binds” in each case.

B2: rat anti-ALK2 monoclonal antibody A2-27D (antibody, V domains shown)
VH: EVQLVESGGGLVQPGRSLKLSCLASGSTFSNYGMKWIRQAPGKGLEWVASISRSSTYIYYADTVKGRFTISRDNARNTLYLQMTSLRSEDTALYYCAAAISTPFYWYFDFWGPGTVVTVSS
VL: EIVLTQSPTTMAASPGEKVTLNCLASSSVSYMTWYQQKSGASPKLWIYGTSNLASGVPNRFSGSGSGTSYSLAISSMEAEDVATYYCLHLTSYPPYTFGAGTKLELKR
notes: Rat monoclonal IgG from a hybridoma; also called 27D11
On to B2, for which the binding result in test [1], in test [2] and in test [3] was “binds” throughout.

B3: rat anti-ALK2 monoclonal antibody A2-15A (antibody, V domains shown)
VH: EVQLVESGGGLVQPGRSLKLSCAASGFTFSHYYMAWVRQAPTKGLEWVASITNSGGSINYRDSVKGRFTISRDNAKSTLYLQMDSLRSEDTATYYCTREGGENYGGYPPFAYWGQGTLVTVSS
VL: DIVLTQSPALAVSLGQRATISCRANQGVSLSRYNLMHWYQQKPGQKPKLLIYRSSNLASGIPARFSGSGSGTDFTLTINPVQADDIATYYCQQSRESPFTFGAGTKLELKR
notes: Rat monoclonal IgG from a hybridoma; also called 15A6
Take B3: the binding result in test [4] and in test [5] was “binds” each time.

B4: rat anti-ALK2 monoclonal antibody A2-11E (antibody, V domains shown)
VH: EVQLVETGGGLVQPGRSLKLSCVASGFTFSNYYMYWIRQAPGKGLEWISSINTDGGSTYYPDSVKGRFAISRDNAENTVYLQMNSLRSEDTATYYCAKSTPNIPLAYWGQGTLVTVSS
VL: DIQMTQSPSLLSASVGDRVTLSCKASQNIYKYLNWFQQKLGEAPKLLIYYSNSLQTGIPSRFSGSGSGTDFTLTISSLQPEDVAIYFCFQYSSGPTFGPGTKLELKR
notes: Rat monoclonal IgG from a hybridoma; also called 11E2
In the case of B4, the binding result in test [4] and in test [5] was “binds” throughout.
